Results on two substances are retold here after publication PMC5868266.

In general, Kd refers to the free concentration of one partner at which half of the binding sites on the other are occupied at equilibrium, for simple one-to-one binding. Read a low Kd as tighter binding. As a reminder, the koff is the first-order rate constant of dissociation. Lower therefore signals slow dissociation. The term kon denotes the rate constant with which the complex forms. Low values mean slower complex formation, high ones faster complex formation.

Test [1] deals with equine alternative pathway C3 convertase (eqC3bBb) (horse (endogenous in equine plasma)).
For test [2], the target named is equine C3b (horse (endogenous in equine plasma)). The test can be described thus: SPR; same injections as a1, steady-state binding model; for SCIN-A on eqC3b the concentrations were subsaturating, so the fit used a constant Rmax based on the eqSCIN/eqC3b interaction. (Surface plasmon resonance follows binding to a sensor surface in real time, without labels.)
The target of test [3] is human C3b (human) (UniProt P01024). The description is as above.
Test [4] has as its target equine C3b (horse (endogenous in equine plasma)). The test can be described thus: SPR; Biacore T200; biotinylated C3b captured on a neutravidin-coupled CMD-200 chip (eqC3b 3,000 RU, human C3b 4,200 RU); SCIN injected 2 min at 2.5-2,500 nM, dissociation 3 min; 25 °C; 20 mM HEPES pH 7.3, 140 mM NaCl, 0.005% Tween 20; 30 μl/min; triplicate; 1:1 kinetic model (KD = kd/ka).
Test [5] concerns the target human C3b (human) (UniProt P01024). Described as above.
For test [6] the target is unchanged. As to the kind of experiment: SPR.

“equine staphylococcal complement inhibitor (eqSCIN) (natural protein)”: the inhibition of eqC3 cleavage (α-chain to α′) by fluid-phase eqC3bBb, eqSCIN 0.04-10 μM, densitometry of reducing SDS-PAGE in test [1] is 0.61 µM. Besides, the Kd in test [2] was 220 nM; in test [3] it was 300 nM; in test [4] it was 61 nM; in test [5], 230 nM. Besides, the koff in test [4] was found to be 0.11 s⁻¹; in test [5] it was 0.13 s⁻¹. In addition, the kon in test [4] amounted to 1.8e+06 M⁻¹ s⁻¹; in test [5] it was 550000 M⁻¹ s⁻¹.

Consider “staphylococcal complement inhibitor SCIN-A (natural protein)”, for which the Kd in test [6] is 140 nM; in test [2], 29000 nM; in test [3], 140 nM. The substance also yielded a koff in test [6] of 0.092 s⁻¹. This substance showed an association rate constant (kon) in test [6] of 630000 M⁻¹ s⁻¹.
